Data reported in the Immune Epitope Database (IEDB).

How the values were obtained:
[1] = target: HLA-B*15:42; experiment: IEDB peptide-MHC binding, purified MHC/competitive/fluorescence; filed as Kd, often an IC50 or EC50 that approximates it; ≥ and ≤ were set here for values at or beyond the usual limits of such assays; settings: source organism: Choclo virus
[2] = target: HLA-B*57:01; experiment: as above; settings: source organism: Choclo virus
[3] = target: HLA-B*27:03; experiment: as above; settings: source organism: Choclo virus
[4] = target: HLA-B*35:01; experiment: as above; settings: source organism: Choclo virus
[5] = target: HLA-B*51:01; experiment: as above; settings: source organism: Choclo virus
[6] = target: HLA-B*15:01; experiment: as above; settings: source organism: Choclo virus
[7] = target: HLA-B*45:06; experiment: as above; settings: source organism: Choclo virus
[8] = target: HLA-B*15:17; experiment: as above; settings: source organism: Choclo virus
[9] = target: HLA-A*02:01; experiment: as above; settings: source organism: Choclo virus
[10] = target: HLA-A*68:23; experiment: as above; settings: source organism: Choclo virus
[11] = target: HLA-B*39:01; experiment: as above; settings: source organism: Choclo virus
[12] = target: HLA-B*83:01; experiment: as above; settings: source organism: Choclo virus
[13] = target: HLA-A*69:01; experiment: as above; settings: source organism: Choclo virus
[14] = target: HLA-A*26:01; experiment: as above; settings: source organism: Choclo virus
[15] = target: HLA-B*46:01; experiment: as above; settings: source organism: Choclo virus
[16] = target: HLA-A*68:02; experiment: IEDB peptide-MHC binding, purified MHC/direct/fluorescence; filed as Kd, often an IC50 or EC50 that approximates it; ≥ and ≤ were set here for values at or beyond the usual limits of such assays; settings: source organism: Choclo virus
[17] = target: HLA-A*24:03; experiment: as above; settings: source organism: Choclo virus
[18] = target: HLA-A*02:12; experiment: as above; settings: source organism: Choclo virus
[19] = target: HLA-A*02:03; experiment: as above; settings: source organism: Choclo virus
[20] = target: HLA-A*03:01; experiment: as above; settings: source organism: Choclo virus
[21] = target: HLA-A*02:16; experiment: as above; settings: source organism: Choclo virus
[22] = target: HLA-A*23:01; experiment: as above; settings: source organism: Choclo virus
[23] = target: HLA-A*02:19; experiment: as above; settings: source organism: Choclo virus
[24] = target: HLA-A*02:11; experiment: as above; settings: source organism: Choclo virus
[25] = target: HLA-B*07:02; experiment: as above; settings: source organism: Orthohantavirus andesense

LPSSSSYSY
Kd [1]: ≥ 5 µM | Kd [2]: ≥ 20 µM | Kd [3]: ≥ 20 µM | Kd [4]: ≤ 0.0001 µM | Kd [5]: ≥ 20 µM | Kd [6]: ≥ 20 µM | Kd [7]: ≥ 5 µM | Kd [8]: ≥ 20 µM | Kd [9]: ≥ 20 µM | Kd [10]: 1.6 µM | Kd [11]: ≥ 20 µM | Kd [12]: 0.747 µM | Kd [13]: ≥ 20 µM | Kd [14]: ≥ 20 µM | Kd [15]: ≥ 20 µM | Kd [16]: ≥ 20 µM | Kd [17]: ≥ 20 µM | Kd [18]: ≥ 20 µM | Kd [19]: ≥ 20 µM | Kd [20]: ≥ 20 µM | Kd [21]: ≥ 20 µM | Kd [22]: ≥ 20 µM | Kd [23]: ≥ 20 µM | Kd [24]: ≥ 20 µM | Kd [25]: 14 µM
